Source: patent US10590192B2, “Midkine antibody” (Cellmid Limited, priority 2014, dated 2020)
Changes are numbered by the printed parent chain. “Also recorded” adds a separate entry of the source.

How the values were obtained:
[1] = molecular target: T1, recombinant human MK (huMK) (Homo sapiens, UniProt P21741); assay: ELISA binding of humanised anti-MK antibodies to huMK; settings: for binding affinity for huMK compared with murine IP14 precursor antibody: comparison in words; for EC50: ELISA, plates coated with 2 ug/mL huMK, read-out: Binding affinity for huMK, ELISA EC50
T1 sequence (P21741 21-143): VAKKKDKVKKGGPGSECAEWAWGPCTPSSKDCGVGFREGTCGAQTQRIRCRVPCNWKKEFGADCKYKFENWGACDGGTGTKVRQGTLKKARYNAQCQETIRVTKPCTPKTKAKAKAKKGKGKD
Method: (§1) The binding specificity and affinity of the humanised anti-MK antibodies to recombinant human MK (huMK) and murine MK (muMK) was assessed by ELISA. ELISA plates (Nunc Immuno MaxiSorp 96 well flat-bottom were coated with 100 uL of 2 ug/mL of either huMK or muMK in 2% BSA/PBS (overnight at room temperature). After washing, blocking (1 h at 37° C.), and washing again, the humanised anti-MK and chimeric antibodies described in Example 1 were analysed for binding to huMK or muMK at concentrations ranging between 3 μg/ml and 0.00004 μg/ml in 2% BSA/PBS (1 h at 37° C.). After washing, the binding of antibody was detected with goat anti-mouse IgG (Fab specific)-HRP conjugate (Sigma, Cat. No. A9917) and SigmaFast OPD substrate (Sigma, Cat. No. P9187). The reaction was stopped with 3 M HCl, absorbance read at 490 nm on a Dynex Technologies MRX TC II plate reader and the binding curves plotted. Binding affinity data for the humanised anti-MK antibodies to huMK and muMK are presented in Table 6 and Table 7 respectively, and in FIG. 3.
(§2) KD values for hIP14-H5L8, hIP14-H6L3 and hIP14-H6L8 was then compared with the KD values obtained for the corresponding murine IP14 precursor antibody and the chimeric antibody using the methods described in Example 2. […] Based on this finding, these candidate antibodies were produced to 100 mg scale to enable further testing in functional assays to determine biological function.

[2] = molecular target: T2, human midkine protein (Homo sapiens, UniProt P21741); assay: UMR106 cell migration inhibition assay (modified Boyden chamber); assay type: cell-based, rat; settings: comparison in words
T2 construct: human MK cDNAs comprising the MK coding region flanked by EcoRI restriction sites; made in house; host or cells: Pichia pastoris GS115 (clone T3L-50-4P), secreted into culture supernatant
T2 sequence (P21741 21-143): T1 sequence (P21741 21-143)
Method: Cell migration assays were performed for each of the preferred candidate humanised IP14 antibodies and the murine IP14 parent antibody to determine the ability of these antibodies to inhibit migration of UMR106 cells to midkine.
The UMR-106 rat osteosarcoma cell line was originally obtained from the American Type Culture Collection, PO Box 1549, Manassas, Va., USA as a frozen stock (catalog no. CRL-1661; batch no. 58494148).
The cells were maintained in: DMEM+Glutamax (DMEM, catalog no. 10569-010 500 mL, lot. no. 778325, Invitrogen/Gibco) supplemented with the following items: Penicillin (10,000 U/mL stock concentration)—Streptomycin (10,000 μg/mL stock concentration) (catalog no. 15140-122 100 mL, lot no. 730849, Invitrogen/Gibco) at a rate of 1 mL/200 mL of DMEM 10% fetal bovine serum (FBS, catalog no. 100099-141, lot no. 6955347Y, Invitrogen/Gibco). The DEM+Glutamax media containing 50 U/mL penicillin, 50 μg/mL streptomycin and 10% FBS is identified as Complete media in this report. The 10% FBS was replaced by 0.3% (w/v) bovine serum albumin (BSA) for the cell migration assays. The BSA was supplied by Sigma-Aldrich, catalog no. A-3192, lot no. 31K1264 and was formulated as a 15% (w/v) stock solution in D-PBS which was sterilized by passage through a 0.22 micron filter and stored at −20° C. prior to use. The cell cultures were maintained in T75 tissue culture-treated flasks in a humidified incubator at approximately 37° C. and 5% carbon dioxide. Cells were sub-cultured twice weekly at a sub-culture ratio ranging from approximately 1:8 to 1:20. Cells were dissociated from the flask by rinsing once with Dulbecco's phosphate buffered saline (DPBS, catalog no. 14190, lot no. 783715, Invitrogen/Gibco) and then incubated with 0.25% Trypsin-EDTA solution (Invitrogen/Gibco) at 37° C. for 2-5 minutes. The cells were then removed by addition of approximately 10 mL of Complete media. The experiments were completed using UMR-106 cells at ˜50 to 75% confluency on the day prior to assay. These cultures were washed once with DMEM and cultured overnight in DMEM containing 0.5% FBS. […]

[3] = molecular target: T3, murine MK (muMK) (Mus musculus, UniProt P12025); assay: ELISA binding of humanised anti-MK antibodies to muMK; settings: for binding affinity for muMK compared with murine IP14 precursor antibody and chimeric antibody: comparison in words; for EC50: ELISA, plates coated with 2 ug/mL muMK, read-out: Binding affinity for muMK, ELISA EC50
T3 sequence (P12025 23-140): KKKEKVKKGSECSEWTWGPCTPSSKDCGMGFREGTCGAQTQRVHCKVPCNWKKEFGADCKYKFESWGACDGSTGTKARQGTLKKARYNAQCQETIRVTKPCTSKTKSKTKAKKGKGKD
Method: as §1, §2

B1: IP14-H5L8: humanised IP14 antibody: VH SEQ ID NO: 6, VL SEQ ID NO: 17 (antibody, V domains shown)
VH: QVQLVQSGGGLVQPGGSLRLSCAASGQSFSSYWMNWVRQAPGQGLEWIGMIHPSDSETILNQKFKDKATLTVDISKNTAYLQMNSLRAEDTAVYYCSSWSAKRGDFWGQGTLVTVSS
VL: DIVLTQSPATLSLSPGERATLSCRASESISNNLHWYQQKPHQAPRLLIYYASQSISGVPARFSGSGSGTDFTLTISSVEPEDFAVYYCQQSNSWPLTFGQGTKVEIKR
modifications: Variable region heavy chain humanised variant 5 (VH5); Variable region light chain humanised variant 8 (VL8)
In the case of B1, the “binding affinity for huMK compared with murine IP14 precursor antibody” value [1] is reported as “better binding affinity”, the “inhibition of UMR-106 cell migration compared with murine IP14 precursor antibody” value [2] is reported as “more effective; also recorded: greater efficacy” and the “binding affinity for muMK compared with murine IP14 precursor antibody and chimeric antibody” value [3] is reported as “better binding affinity”.

B2: IP14-H4L7: humanised IP14 antibody: VH SEQ ID NO: 5, VL SEQ ID NO: 16 (antibody, V domains shown)
VH: QVQLVQSGAEVKKPGASVKVSCKASGYTFTSYYMHWVRQAPGQGLEWMGIIHPSGGSTSYAQKFQGRVTMTRDTSTSTVYMELSSLRSEDTAVYYCARWSAKRGDFWGQGTLVTVSS
VL: B1 VL with T20N, T72N
modifications: Variable region heavy chain humanised variant 4 (VH4); Variable region light chain humanised variant 7 (VL7)
In the case of B2, the EC50 [1] is reported as > 10 nM and the EC50 [3] is reported as > 10 nM.

B3: IP14-H4L8: humanised IP14 antibody: VH SEQ ID NO: 5, VL SEQ ID NO: 17 (antibody, V domains shown)
VH: B2 VH
VL: B1 VL
modifications: Variable region heavy chain humanised variant 4 (VH4); Variable region light chain humanised variant 8 (VL8)
B3 was tested, and the EC50 [1] was > 10 nM and the EC50 [3] was > 10 nM.

B4: IP14-H6L3: humanised IP14 antibody: VH SEQ ID NO: 7, VL SEQ ID NO: 12 (antibody, V domains shown)
VH: B1 VH with Q13K, G16H, Q43K, T71S, S75A, T78S
VL: B1 VL with H41G, V58I, S67P, V78L, Q100G, V104L
modifications: Variable region heavy chain humanised variant 6 (VH6); Variable region light chain humanised variant 3 (VL3)
For B4, the “binding affinity for huMK compared with murine IP14 precursor antibody” value [1] was “better binding affinity”, the “inhibition of UMR-106 cell migration compared with murine IP14 precursor antibody” value [2] was “more effective; also recorded: greater efficacy” and the “binding affinity for muMK compared with murine IP14 precursor antibody and chimeric antibody” value [3] was “better binding affinity”.

B5: IP14-H6L8: humanised IP14 antibody: VH SEQ ID NO: 7, VL SEQ ID NO: 17 (antibody, V domains shown)
VH: B1 VH with Q13K, G16H, Q43K, T71S, S75A, T78S
VL: B1 VL
modifications: Variable region heavy chain humanised variant 6 (VH6); Variable region light chain humanised variant 8 (VL8)
In the case of B5, the “binding affinity for huMK compared with murine IP14 precursor antibody” value [1] is reported as “better binding affinity”, the “inhibition of UMR-106 cell migration compared with murine IP14 precursor antibody” value [2] is reported as “more effective; also recorded: greater efficacy” and the “binding affinity for muMK compared with murine IP14 precursor antibody and chimeric antibody” value [3] is reported as “better binding affinity”.
